assay: yeast display, Sf9 membrane polyspecificity reagent, FACS + sequencing; frameworks hold sequencing errors
Outline: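 A synthetic nanobody library was expressed on Saccharomyces cerevisiae BJ5465 by galactose induction for 36–48 hours. The library was stained for 1 hour at 4 °C with 10% biotinylated, detergent-solubilized Sf9 membrane reagent and enriched with streptavidin microbeads before FACS. Low and high (top ~1%) gates were set on anti-HA fluorescence for expression and streptavidin fluorescence for reagent binding, and each polyreactivity label reflects the gate of origin.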

Sequence | polyreactivity (PSR sort gate)
QVQLVESGGGLVQAGGSLRLSCAASGRIFPFYAMGWNRQAPGKERELVAAITSSGGRTYYADSVKGRFTISRDNAKNTVYLQMNSLIPEDTAVYYCAADDTDYPEYDYWGQGTQVTVSS | high polyreactivity
QVQLVESGGGLVQAGGSLRLSCAASGRIFPFYVMGWYRQAHGKERELVATINWSGGSTYYADSVKGRFTISRDNAKNTVYLQMNRLKPEDTAVYYCNGAPSDDYDYWGQGTQVTVSS | low polyreactivity
QVQLVESGGGLVQAGGSLRLSCAASGRIFPFYVMGWYRQAPGKERELVATINWSGGSTYYADSVKGRFTISRDNAKNTVYLQMNSLKPEDSAVYYCNAAPSEDYDYWGQGTQVTVSS | low polyreactivity
QVQLVESGGGLVQAGGSLRLSCAASGRIFPFYVMGWYRQAPGKERELVATINWSGGSTYYADSVKGRFTISRDNAKNTVYLQMNSLKPEDTAVYYCNAAPSDDYDYWGQGTQVTVSS | low polyreactivity
QVQLVESGGGLVQAGGSLRLSCAASGRIFPFYVMGWYRQAPGKERELVATINWSGGSTYYADSVKGRFTISRDNAKNTVYLQMNSLKPEETAVYYCNAAPSDDYDYWGQGTQVTVSS | low polyreactivity
QVQLVESGGGLVQAGGSLRLSCAASGRIFPGYAMGWYRQAPGKERELVAGISNDASTNYADSVKGRFTISRDNAKNTVYLQMNSLKPEDTAVFYCAAEISYLSVPRYDYWGQGTQVTVSS | low polyreactivity
QVQLVESGGGLVQAGGSLRLSCAASGRIFPGYGMGWYRQAPGKERELVASISVGGGSTYYADSVKGRFTISRDNAKNTVYLQMNSLKPEDTAVYYCAADPSPYGDEYDYWGQGTQVTVSS | low polyreactivity
QVQLVESGGGLVQAGGSLRLSCAASGRIFPHNAMGWYRQAPGTERELVAAISSNVGSTYYADSVKGRFTISRDNAKNTVYFQMNSLKPEDTAVYYCAKYRYFAGDGDYWGQGTQVTVSS | low polyreactivity
QVQLVESGGGLVQAGGSLRLSCAASGRIFPHYARGWYRQAPGKERELFAAINVDGGRTYYADSVKGRFTISRDNAKNTVYLQLTSLKPEDTAVYYCAAKPVLYHEQDYGYAVEFNYWGQGTQVTVSS | low polyreactivity
QVQLVESGGGLVQAGGSLRLSCAASGRIFPINVMGWYRQAPGKERELVAAISGRGGSTYYADSVKGRFTISRDNAKNTVYLQMNSLKPEDTAVYYCNAVRVSIPYIYTMDYWGQGTQVTVSS | high polyreactivity
QVQLVESGGGLVQAGGSLRLSCAASGRIFPIYAMGWYRQAPGKERELVATIRYSSGTTYYADSVKGRFTISRDNAKNTVYLQMNSLKPEDTAVYYCAADSQWAYISEYDYWGQGTQVTVSS | low polyreactivity
QVQLVESGGGLVQAGGSLRLSCAASGRIFPKYAMGWYRQAPGKERELVAAISRRGSSTYYADSVKGRFTISRDNAKNTVYLQMTSLKPEDTAVYYCATDARDGHDYWGQGTQVTVSS | high polyreactivity
QVQLVESGGGLVQAGGSLRLSCAASGRIFPLYAMGWYRQAPGKERELDAAISKRDGSTSYADSVKGRFTISRDNAKNTVYLQMNSLKPVDTAVYYCNARNHVQVLFRRDYWGQGTQVTVSS | low polyreactivity
QVQLVESGGGLVQAGGSLRLSCAASGRIFPLYTMGWYRQAPGKERELVAAISVSGGRTSYADSVKGRFTISRDNAKNTVYLQMNSLKPEDTAVYSCAARYYVTSYFSSMYYWGQGTQVTVSS | high polyreactivity
QVQLVESGGGLVQAGGSLRLSCAASGRIFPPNAMGWYRQAPGKERELVAGITSSGDTTYYADSVKGRFTISRDNAKNTVYLQMTSLKPEDTAVYYCAKDEVYADDRSALFDYWGQGTQVTVSS | low polyreactivity
QVQLVESGGGLVQAGGSLRLSCAASGRIFPRNTMGWYRQATGKERELVAAISVSGGSTYYADSVKGRVTISRDNAKNTVYLQMNRLKPEDTAVFFCAAAKCYRSGSWYEYWGQGTQVTVSS | high polyreactivity

Sequence | polyreactivity (PSR sort gate)
QVQLVESGGGLVQAGGSLRLSCAASGRIFPRYALGGYRQAPGKERELVAGISRSGGSTYYADSVKGRFTISRDNAKNTVYLQMNSLKPEDTAVYYCNTGGHYGARKYDYWGQGTQVTVSS | low polyreactivity
QVQLVESGGGLVQAGGSLRLSCAASGRIFPSNAMGWYRQAPGKERELVAAISFSGGSTYYADSVKGRFTISRDNAKNTVYLQMNSLKPEDTAVYYCAKSGVVDWGQGTQVTVSS | low polyreactivity
QVQLVESGGGLVQAGGSLRLSCAASGRIFPSYAMGWYRQAPGKERELVAAISDSDGSTYYADSVKGRFTISRDNAKNTVYLQMNSLKPEDTAVYYCAAEGSYPAYDYWGQGTQVTVSS | low polyreactivity
QVQLVESGGGLVQAGGSLRLSCAASGRIFPSYAMGWYRQAPGKERELVAGIRSGGGSTYYADSVKGRFTISRDNAKNTVYLQMNSLKPEDTAVYYCAADPGLYGDYPLAEDYWGQGTQVTVSS | low polyreactivity
QVQLVESGGGLVQAGGSLRLSCAASGRIFPTYAMGWSRQAPGKERELVAAISRRTTRTYYADSVKGRFTISRDNAKNTVYLQMNSLKPEDTAVYYCAARLYSSVVRYRYGYWGQGTQVTVSS | high polyreactivity
QVQLVESGGGLVQAGGSLRLSCAASGRIFPTYTMGWYRQAPGKERELLAAISGRGGNTYYADSVKGRFTISRDTAKNTVYLQMNSLKPEDTAVYYCAARYPVRNGYWGLGTQVTVSS | high polyreactivity
QVQLVESGGGLVQAGGSLRLSCAASGRIFPTYTMGWYRQAPGKERELVAAITSGGTTYYADSVKGLFTISRDNAKNTVYLQMNSLKPEDTAVYSCAALRPRRGYYYWGQGTQVTVSS | high polyreactivity
QVQLVESGGGLVQAGGSLRLSCAASGRIFPVYAMGWYRQAPGKERELVASISSSGARTYYADSVKGRFTISRDNAKNTVYLQMNSLKPEDTAVYYCNAVRYFSSHSFISDYWGQGTQVTVSS | low polyreactivity
QVQLVESGGGLVQAGGSLRLSCAASGRIFPVYAMGWYRQAPGKERELVATITSRTGRTYYADSVKGRFTISRDNAKNTVYLQMNSLIPEDTAVSYCAARGYYSAPGYGYWGQGTQVTVSS | high polyreactivity
QVQLVESGGGLVQAGGSLRLSCAASGRIFPWYAMGWYRQAPGKERELVAAIKWDSGSTYYADSVKGRFTISRDNAKNTVYLQMNSLKPEDTAVYYCAAEYVAWYYGLYFSYDYWGQGTQVTVSS | high polyreactivity
QVQLVESGGGLVQAGGSLRLSCAASGRIFPWYTMGWYRQAPGKESELVATIRGSGGSTHYADSVKGRFTISRDNAKNTVYLQMNSLKPEDTAVYYCATDRPRYRYQYKFDYWGQGTQVTVSS | low polyreactivity
QVQLVESGGGLVQAGGSLRLSCAASGRIFPYNAMGWYRQAPGKERELVASIRTGGGRTRYADSVKGRFTISRDNAKNTVYLQMNSLKPEDTAVYYCNADSSPRWYHYPTRYDYWGQGTQVTVSS | low polyreactivity
QVQLVESGGGLVQAGGSLRLSCAASGRIFPYYAMGRYRQAPGKERELVARITRNGGTTYYADSVKGRFTISRDNAKNTVYLQMNSLKPEDTAVYYCAATYSVPYYRSWPEYDYWGQGTQVTVSS | high polyreactivity
QVQLVESGGGLVQAGGSLRLSCAASGRIFPYYAMGWYRQAPGKERELVAAITTSGGSTYYADSVKGRFTISRDNAKNTVYLQMNSLKPEDTAVYYCARDLYYYSPYDEYDSWGQGTQVTVSS | low polyreactivity
QVQLVESGGGLVQAGGSLRLSCAASGRIFPYYAMGWYRQAPGKERELVASIRYSAGNTYYADSVKGRFTISRDNAKNTVYLQMNSLKPEDTAVYYCAKLYRSYTIRPVWGRYDYWGQGTQVTVSS | low polyreactivity
QVQLVESGGGLVQAGGSLRLSCAASGRIFPYYAMGWYRQAPGKERELVATISSGGRTNYADTVMGRFTISRDNAKNTVYLQMNSLKPEDTAVYYCAADYRKSRVFYGLYYWGQGPQVTVSS | high polyreactivity
